In publication PMC9991911, “IMM0306, a fusion protein of CD20 mAb with the CD47 binding domain of SIRPα, exerts excellent cancer killing efficacy by activating both macrophages and NK cells via blockade of CD47-SIRPα interaction and FcɣR engagement by simultaneously binding to CD47 and CD20 of B cells” (Leukemia, 2022):

Columns and labels:
CD20 (Biacore assay) = CD20 (Biacore assay) (UniProt P11836); assay: SPR; Biacore assay; who was immobilised and the conditions not given
CD47 (Biacore assay) = CD47 (Biacore assay) (UniProt Q08722); assay: as above
CD47 (Biacore assay), sequence (Q08722 19-323): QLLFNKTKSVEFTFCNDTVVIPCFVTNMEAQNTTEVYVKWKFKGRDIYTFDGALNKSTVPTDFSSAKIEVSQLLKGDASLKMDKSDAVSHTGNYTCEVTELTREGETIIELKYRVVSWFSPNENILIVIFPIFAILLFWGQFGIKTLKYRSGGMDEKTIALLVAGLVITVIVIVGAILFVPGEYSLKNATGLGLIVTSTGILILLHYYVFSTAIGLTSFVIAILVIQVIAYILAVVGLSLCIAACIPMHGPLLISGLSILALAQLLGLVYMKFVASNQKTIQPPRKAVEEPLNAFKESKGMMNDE

[1] = target: CD47 on Jurkat cells (human (endogenous in Jurkat)) (UniProt Q08722); assay: flow cytometry on cells; cultured cells (Jurkat; Raji-CD47KO; cells with both targets) stained with IMM0306, then secondary antibody anti-human IgG (Fc)-FITC; data analysed with GraphPad Prism 8.0
CD47 on Jurkat cells (human (endogenous in Jurkat)), sequence (Q08722 19-323): as above

CD47/CD20 double targets = assay: as above
[2] = target: T1, CD20 on Raji-CD47KO cells (Homo sapiens (endogenous, Raji-CD47KO), UniProt P11836); assay: as above; conditions: one partner purified
T1 construct: CD20, endogenous on Raji-CD47KO cells; also called CD20 target on Raji-CD47KO cells; CD20-positive cells (Raji-CD47KO); source: endogenous, on Raji-CD47KO cells (Raji with human CD47 knockout, in-house)
T1 sequence (P11836 whole entry): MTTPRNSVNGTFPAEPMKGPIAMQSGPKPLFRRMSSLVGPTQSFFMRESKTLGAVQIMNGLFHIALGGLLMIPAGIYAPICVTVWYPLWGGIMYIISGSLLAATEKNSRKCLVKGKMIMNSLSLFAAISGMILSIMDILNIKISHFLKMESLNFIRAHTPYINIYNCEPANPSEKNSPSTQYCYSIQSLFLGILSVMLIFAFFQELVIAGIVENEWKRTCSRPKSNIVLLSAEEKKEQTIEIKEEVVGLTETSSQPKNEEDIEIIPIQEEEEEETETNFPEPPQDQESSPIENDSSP

CD20 (Biacore assay), sequence (P11836 whole entry): as above

Kd (CD20 (Biacore assay)): 2.45 nM
Kd (CD47 (Biacore assay)): 4.91 nM
EC50 [1]: 16.8 nM
EC50 (CD47/CD20 double targets): 11.5 nM
EC50 [2]: 18.9 nM
B1: IMM0306, a fusion protein of CD20 mAb with the CD47 binding domain of SIRPα (bispecific antibody, V domains shown)
VH: QVQLQQPGAELVKPGASVKMSCKASGYTFTSYNMHWVKQTPGRGLEWIGAIYPGNGDTSYNQKFKGKATLTADKSSSTAYMQLSSLTSEDSAVYYCARSTYYGGDWYFNVWGAGTTVTVSA
VL: QIVLSQSPAILSASPGEKVTMTCRASSSVSYIHWFQQKPGSSPKPWIYATSNLASGVPVRFSGSGSGTSYSLTISRVEAEDAATYYCQQWTSNPPTFGGGTKHELK
notes: IgG1; only the SIRPα D1 part can be built; also called CD47xCD20 mAb trap; source: in-house developed CHO-K1 cell expression system; copies: 2 +
